Measured values from ChEMBL document CHEMBL1153321, “Approaches to the simultaneous inactivation of metallo- and serine-beta-lactamases” (Bioorg Med Chem Lett, 2009).

Assays:
Settings in all cases: Enterobacter cloacae
[1] = substrate: CC(=O)OCC1=C(C(=O)O)N2C(=O)[C@@H](N(O)C=O)[C@H]2SC1
[2] = substrate: CC(=O)OCC1=C(C(=O)O)N2C(=O)/C(=N/O)[C@H]2SC1
[3] = substrate: CC(=O)OCC1=C(C(=O)O)N2C(=O)/C(=N/O)[C@H]2S(=O)(=O)C1
[4] = substrate: CC(=O)OCC1=C(C(=O)O)N2C(=O)[C@@H](NC=O)[C@H]2SC1
[5] = substrate: CC1=C(C(=O)O)N2C(=O)/C(=N/O)[C@H]2S(=O)(=O)C1
[6] = substrate: CC(=O)OCC1=C(C(=O)O)N2C(=O)[C@@H](NC(=O)Cc3cccs3)[C@H]2SC1
[7] = substrate: CC(=O)OCC1=C(C(=O)O)N2C(=O)[C@@H](N)[C@H]2SC1
[8] = substrate: CC(=O)OCC1=C(C(=O)O)N2C(=O)[C@@H](NO)[C@H]2SC1
[9] = substrate: CC(=O)OCC1=C(C(=O)O)N2C(=O)[C@@H](N(O)C(=O)Cc3ccccc3)[C@H]2SC1

B1: Beta-lactamase (Enterobacter cloacae), P05364 (protein)
chain: MMRKSLCCALLLGISCSALATPVSEKQLAEVVANTITPLMKAQSVPGMAVAVIYQGKPHYYTFGKADIAANKPVTPQTLFELGSISKTFTGVLGGDAIARGEISLDDAVTRYWPQLTGKQWQGIRMLDLATYTAGGLPLQVPDEVTDNASLLRFYQNWQPQWKPGTTRLYANASIGLFGALAVKPSGMPYEQAMTTRVLKPLKLDHTWINVPKAEEAHYAWGYRDGKAVRVSPGMLDAQAYGVKTNVQDMANWVMANMAPENVADASLKQGIALAQSRYWRIGSMYQGLGWEMLNWPVEANTVVEGSDSKVALAPLPVAEVNPPAPPVKASWVHKTGSTGGFGSYVAFIPEKQIGIVMLANTSYPNPARVEAAYHILEALQ
Km [1]: 240 µM
kcat [1]: 0.32 s⁻¹
Km [2]: 366 µM
kcat [2]: 2.56 s⁻¹
Km [3]: > 200 µM
Km [4]: 315 µM
kcat [4]: 1180 s⁻¹
Km [5]: 4.5 µM
kcat [5]: 0.54 s⁻¹
Km [6]: 15.4 µM
kcat [6]: 690 s⁻¹
Km [7]: 290 µM
kcat [7]: 0.46 s⁻¹
Km [8]: 1450 µM
kcat [8]: 1.6 s⁻¹
Km [9]: 5 µM
kcat [9]: 0.49 s⁻¹
